The target in the experiment is T1, mouse CD206 extracellular domain fused to a myc tag and the PDGFRβ transmembrane domain, displayed on MetBo2 … (Mus musculus (cDNA of IL-4 treated …)).
T1 construct: transmembrane domain of the human platelet-derived growth factor receptor (PDGFRβ); the methods name only myc; also called CD206 ECD; CD206 ECD construct; source: MetBo2 cells, transiently transfected (CMV promoter), on cells
T1 chain: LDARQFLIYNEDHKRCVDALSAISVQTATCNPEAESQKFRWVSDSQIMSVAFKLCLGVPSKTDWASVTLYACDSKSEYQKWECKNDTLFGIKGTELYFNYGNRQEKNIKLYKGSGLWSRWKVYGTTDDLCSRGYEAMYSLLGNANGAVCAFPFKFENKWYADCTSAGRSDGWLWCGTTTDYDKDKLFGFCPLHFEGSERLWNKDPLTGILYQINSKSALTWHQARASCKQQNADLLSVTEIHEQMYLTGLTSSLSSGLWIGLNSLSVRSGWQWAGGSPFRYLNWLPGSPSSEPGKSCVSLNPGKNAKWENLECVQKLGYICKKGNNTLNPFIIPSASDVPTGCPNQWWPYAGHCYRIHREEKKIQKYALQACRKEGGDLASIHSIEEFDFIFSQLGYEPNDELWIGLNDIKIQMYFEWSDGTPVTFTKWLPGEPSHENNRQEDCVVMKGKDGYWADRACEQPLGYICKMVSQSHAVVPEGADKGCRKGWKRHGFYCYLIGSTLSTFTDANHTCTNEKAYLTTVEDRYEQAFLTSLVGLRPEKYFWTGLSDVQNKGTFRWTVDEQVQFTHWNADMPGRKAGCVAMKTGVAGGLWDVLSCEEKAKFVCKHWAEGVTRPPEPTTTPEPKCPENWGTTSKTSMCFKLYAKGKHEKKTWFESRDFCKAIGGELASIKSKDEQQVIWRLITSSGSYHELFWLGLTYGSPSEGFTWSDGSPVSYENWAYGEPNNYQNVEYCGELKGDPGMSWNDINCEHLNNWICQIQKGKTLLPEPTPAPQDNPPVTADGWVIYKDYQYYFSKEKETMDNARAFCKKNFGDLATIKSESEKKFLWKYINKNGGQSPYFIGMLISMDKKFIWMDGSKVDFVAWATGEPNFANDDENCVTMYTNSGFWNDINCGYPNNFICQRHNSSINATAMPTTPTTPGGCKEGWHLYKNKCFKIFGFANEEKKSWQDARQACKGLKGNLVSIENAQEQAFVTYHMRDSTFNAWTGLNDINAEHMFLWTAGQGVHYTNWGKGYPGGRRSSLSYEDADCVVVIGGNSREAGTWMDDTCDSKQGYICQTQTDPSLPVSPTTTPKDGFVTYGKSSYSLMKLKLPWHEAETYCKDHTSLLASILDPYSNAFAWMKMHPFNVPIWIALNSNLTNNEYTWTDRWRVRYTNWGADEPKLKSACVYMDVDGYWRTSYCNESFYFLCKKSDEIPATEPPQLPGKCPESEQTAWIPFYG
Briefly: immunostaining of cells or tissue; supernatant of HEK293FT cells with αCD206-mNeonGreen chromobody put on MetBo2 cells transiently expressing the CD206 ECD construct; 4 °C overnight in the dark; fluorescence microscopy (methods: fixed cells; legend: live cells). The conditions noted are these: partners not purified.

Here are results for one molecule from publication PMC11669160, “Engineering an αCD206-synNotch Receptor: Insights into the Development of Novel Synthetic Receptors” (ACS Synthetic Biology, 2024).

B1: αCD206-mNeonGreen chromobody (αCD206 VHH fused to mNeonGreen) (VHH)
VHH: QVQLQESGGGLVQPGGSLRLSCAASGNIFSINAIGWYRQAPGKQRELVATITLSGSTNYADSVKGRFSISRDNAKNTVYLQMNSLKPEDTAVYYCNANTYSDSDVYGYWGQGTQVTVSS
notes: also called αCD206 chromobodies; αCD206 nanobody; source: HEK293FT, transiently transfected; cell-free culture supernatant used unpurified
In the case of B1, the binding result was “binds”.
